Data reported in article PMC9233703.

Columns and labels:
[1] = target: bovine brain tubulin polymerized into the microtubule lattice (bovine) (UniProt Q6B856); assay: motor-pulling assay (TIRF microscopy); taxol-stabilized microtubules, 10 μM taxol, held by digoxigenin-labeled tubulin; 3.8 kb biotinylated DNA linker; 6 nM biotinylated kinesin-1; 1 mM ATP, 28 °C
[2] = target: bovine brain tubulin polymerized into the microtubule lattice (bovine) (UniProt Q6B856); assay: optical tweezer force spectroscopy; taxol-stabilized microtubules copolymerized with biotinylated tubulin, affixed to neutravidin-coated coverslip; single tubulin pulled by its α-tubulin CTT through an 8.2 kb DNA linker and an anti-digoxigenin bead, perpendicular to the microtubule axis; constant pulling velocity 0.32 μm/s; BRB80, 10 μM taxol
[3] = target: bovine brain tubulin polymerized into the microtubule lattice (bovine) (UniProt Q6B856); assay: motor-pulling assay (TIRF microscopy); GDP-microtubules with GMPCPP-tubulin caps held on the surface by anti-digoxigenin antibody; tubulin with 3.8 kb biotinylated DNA linker pulled along the microtubule axis by biotinylated kinesin-1 (0.5-9 nM) joined via neutravidin; 1 mM ATP, SYTOX Green, 28 °C

bovine brain tubulin labeled with an oligo-DNA handle on the α-tubulin C-terminal tail (SSL method), hybridized to a long DNA linker (from UniProt Q6B856 1-445) (complex)
median rupture time under pulling by kinesin-1 (6 nM) [1]: 18 s | force typically required to remove tubulin from the lattice [2]: 30 pN | lifetime in the lattice at zero force estimated from the rupture force histogram (Dudko method, single-step extraction) [2]: 40 s | rupture force [2]: 33.8 pN | decay time of the rupture-time histogram (4.5-9 nM biotinylated kinesin) [3]: 8.8 s | median rupture time under pulling by kinesin-1 (plateau at high kinesin concentration) [3]: 8 s | percentage of DNA remained on the microtubules after 5 min with 6 nM biotinylated kinesin-1 [3]: 59%
